Results taken from US20260258115A1 (MAPP BIOPHARMACEUTICAL, published 2026).

Key:
[1] = biological target: T1, RSV postfusion F (postF), subtype A (respiratory syncytial virus subtype A, UniProt P03420 26-513); test: BLI
T1 construct: also called Postfusion subtype A; F deltaFP

[2] = biological target: T2, RSV prefusion F (preF), subtype B (respiratory syncytial virus subtype B); test: BLI, IgG
T2 construct: also called Prefusion subtype B

[3] = biological target: RSV F on RSV subtype A virus (mKate-RSV A2) (respiratory syncytial virus A2, UniProt P03420 26-574); test: cell-based or functional assay
[4] = biological target: RSV F on RSV subtype B virus (mKate-RSV B 18537) (respiratory syncytial virus B 18537, UniProt P13843 26-574); test: cell-based or functional assay

B1: ADI-24831 (antibody, V domains shown)
VH: QVQLVESGGGLVKPGGSLRLSCAASGFTFSSYSMNWVRQAPGKGLEWVSSISSSSSYIYYADSVKGRFTISRDNAKNSLYLQMNSLRAEDTAVYYCARVPSDFWSGYYNDYWGQGTLVTVSS
VL: QSVLTQPPSVSGAPGQRVTISCTGSSSNIGAGYDVHWYQQLPGTAPKLLIYGNSNRPSGVPDRFSGSKSGTSASLAITGLQAEDEADYYCQSYDSSLSGSWVFGGGTKLTVL
notes: full-length IgG; also called Ab 393
binding result [1]: no binding | Kd [2]: 6.23 nM | Neut IC50 subtype A [3]: 0.21 µg/mL | Neut IC50 subtype B [4]: 3.29 µg/mL

B2: ADI-22774 (antibody, V domains shown)
VH: EVQLLESGGGLVKPGGSLRLSCAASGFTFSSYSMNWVRQAPGKGLEWVSSISSSSSYIYYADSVKGRFTISRDNAKNSLYLQMNSLRAEDTAVYYCAREGASGYNYRYYFDYWGQGTLVTVSS
VL: QSVLTQPPSVSGAPGQRVTISCTGSSSNIGAGYDVHWYQQFPGAAPKLLIYGNNNRPSGVPDRFSGSKSGTSASLAITGLQADDEADYYCQSYDSSLSGYVVFGGGTKLTVL
notes: full-length IgG
binding result [1]: no binding | Kd [2]: 4.28 nM | Neut IC50 subtype A [3]: 0.29 µg/mL | Neut IC50 subtype B [4]: 7.53 µg/mL

B3: ADI-14335 (antibody, V domains shown)
VH: EVQLVESGGGLVQPGRSLRLSCTASGFTFGDYAMSWVRQAPGKGLEWVGFIRSNAFGGTSEYAASVKGRFTISRDDSKSIAYLQMNSLKTEDTAVYYCTRDGIHDYGDSYYYYGMDVWGQGTTVTVSS
VL: DIQLTQSPSSLSASVGDRVTITCRASQTVTTYLNWYQQKPGKAPKLLIYGASSLQSGVPSRFSGSGSGTDFTLTINSLQPEDFATYYCQQTYSTVTFGPGTKVEIK
notes: full-length IgG; also called Ab 3
binding result [1]: no binding | Kd [2]: 0.889 nM | Neut IC50 subtype A [3]: 0.32 µg/mL | Neut IC50 subtype B [4]: 0.1 µg/mL

B4: ADI-24832 (antibody, V domains shown)
VH: EVQLVESGGGLVKPGGSLRLSCAASGFTFSSYSMNWVRQAPGKGLEWVSSISASSSYIFYSDLVKGRFTISRDNAKNSLYLQMNSLRAEDTAVYYCARAGYYYGSGSYYVDYWGQGTLVTVSS
VL: QSVLTQPPSVSGAPGQRVAISCTGSSSNIGAGYDVHWYQQLPGTAPKLLIYGNSNRPSGVPDRFSGSKSGTSASLAITGLQAEDEADYYCQSYGSSLSGWVFGGGTKLTVL
notes: full-length IgG
binding result [1]: no binding | Kd [2]: 1.95 nM | Neut IC50 subtype A [3]: 0.49 µg/mL | Neut IC50 subtype B [4]: 0.24 µg/mL

B5: ADI-25524 (antibody, V domains shown)
VH: EVQLLESGGGLVKPGGSLRLSCAASGFTFSSYSMNWVRQAPGKGLEWVSSISSSSSYIYYADSVKGRFTISRDNAKNSLYLQMNSLRAEDTAVYYCAREWSPIVVVTNAFDIWGQGTMVTVSS
VL: QSVLTQPPSVSGAPGQRVTISCTGSSSNIGAGYDVHWYQQLPGTAPKLLIYGNSNRPSGVPDRFSGSKSGTSASLAITGLQAEDEADYYCQSYDSSLSGWVFGGGTKVTVL
notes: full-length IgG
binding result [1]: no binding | Kd [2]: 23.4 nM | Neut IC50 subtype A [3]: 1.77 µg/mL | Neut IC50 subtype B [4]: 2.09 µg/mL

B6: ADI-24850 (antibody, V domains shown)
VH: QVQLVQSGGGLVKPGGSLRLSCAASGFTFSSYSMNWVRQAPGKGLEWVSSISSSSSYIYYADSVKGRFTISRDNAKNSLYLQMNSLRAEDTAVYYCAREDYGDYYYYYMDVWGKGTTVTVSS
VL: QPVLTQPPSVSGAPGQRVTISCTGSSSNIGAGYDVHWYQQLPGTAPKLLIYGNSNRPSGVPDRFSGSKSGTSASLAITGLQAEDEADYYCQSYDSSLSGYVFGTGTKVTVL
notes: full-length IgG
binding result [1]: no binding | Kd [2]: 5.56 nM | Neut IC50 subtype A [3]: 0.94 µg/mL | Neut IC50 subtype B [4]: 4.17 µg/mL

B7: ADI-14333 (antibody, V domains shown)
VH: EVQLVETGGGLVKPGGSLRLSCADSGFPFSSYSMHWVRQAPGKGLEWVASISSSSSFINYADSVKGRFTISRDNAKNSLYLQMNSLRAEDTAVYFCAREAACGGDCYGYYFDYWGQGTLVTVSS
VL: QSVVTQPPSASGAPGQRVTISCTGSSSNIGAGYDVHWYQQLPGTAPKVLISGNSNRPSGVPARFSGSKSGTSASLAITGLQAEDEADYYCQSYDSSLSGSVFGGGTQLTVL
notes: full-length IgG; also called Ab 1
binding result [1]: no binding | Kd [2]: 0.904 nM | Neut IC50 subtype A [3]: 0.07 µg/mL | Neut IC50 subtype B [4]: 0.09 µg/mL

B8: ADI-24860 (antibody, V domains shown)
VH: EVQLLESGGGLVKPGGSLRLSCAASGLTFSDYYMSWIRQAPGKGLEWVSYISGGSSYSNYADSVKGRFTISRDNAKNSLYLQMNSLRAEDTAVYYCARGYCSGSSCYEAFDIWGQGTTVTVSS
VL: SYVLTQPPSVSGAPGQRVTISCTGSSSNIGAGFDVHWYQQLPGTAPKLLIYGNSDRPSGVPDRFSGSKSGTSASLAITGLQAEDEADYYCQSYDSSLSGYVFGTGTKVTVL
notes: full-length IgG; also called Ab 420
binding result [1]: no binding | Kd [2]: 1.56 nM | Neut IC50 subtype A [3]: 0.06 µg/mL | Neut IC50 subtype B [4]: 0.09 µg/mL

B9: ADI-24835 (antibody, V domains shown)
VH: EVQLVESGGGLVKPGGSLRLSCAASGFPFSTSSMNWVRQAPGKGLEWVSSISSSSSYIDYADSVKGRFTISRDNAKNSLYLQMNSLRAGDTAVYYCARVPRSDWYYFDYWGQGTLVTVSS
VL: QSVVTQPPSVSGAPGQRVTISCTGSSSNIGAGYDVHWYQQLPGTAPKFLIYDNKYRPSGVPDRFSGSKSGTSASLAITGLQAEDEADYYCQSYDSSLSGYVFGTGTKLTVL
notes: full-length IgG
binding result [1]: no binding | Kd [2]: 5.55 nM | Neut IC50 subtype A [3]: 0.63 µg/mL | Neut IC50 subtype B [4]: 1.06 µg/mL

B10: ADI-24828 (antibody, V domains shown)
VH: EVQLVESGGGLVKPGGSLRLACAASGFSFRSYRMNWVRQAPGKGLEWVSSISSSSSYIDYADSVKGRFTISRDNAKNTVYLQVNSLRAEDTAVYYCARDGRTIFGVVIDYWGQGTLVTVSS
VL: QSVLTQPPSVSGAPGQRVTISCTGSSSNIGAGYDVHWYQQLPGTAPKLLIYGNNNRPSGVPDRFSGSKSGTSASLVITGLQAEDEADYYCQSYDSSLSVVFGGGTKLTVL
notes: full-length IgG; also called Ab 390
binding result [1]: no binding | Kd [2]: 0.391 nM | Neut IC50 subtype A [3]: 0.02 µg/mL | Neut IC50 subtype B [4]: 0.04 µg/mL

B11: ADI-24839 (antibody, V domains shown)
VH: EVQLVESGGGLVKPGGSLRLSCAASGFTFSSYSMNWVRQAPGKGLEWVSSISSSSSYIYYADSVKGRFTISRDNAKNSLYLQMNSLRAEDTAVYYCARVLVATAYGNAFDIWGQGTMVTVSS
VL: QSVLTQPPSVSGAPGQRVTISCTGSSSNIGAGYDVHWYQQLPGTAPKLLIYGNSNRPSGVPDRFSGSKSGTSASLAITGLQAEDEADYYCQSYDSSLTVVFGGGTKLTVL
notes: full-length IgG
binding result [1]: no binding | Kd [2]: 9.63 nM | Neut IC50 subtype A [3]: 0.44 µg/mL | Neut IC50 subtype B [4]: 4.1 µg/mL

B12: ADI-24842 (antibody, V domains shown)
VH: QVQLVQSGGGLVKPGGSLRLSCAASGFTFSSYSMNWVRQAPGKGLEWVSSISSSSSYIYYADSVKGRFTISRDNAKNSLYLQMNSLRAEDTAVYYCARVPPHDYGGYYFDYWGQGTLVTVSS
VL: QSVVTQPPSVSGAPGQRVTISCTGSSSNIGAGYDVHWYQQLPGTAPKLLIYRNSNRPSGVPDRFSGSKSGTSASLAIIGLQAEDEADYYCQSYDSSLSVVFGGGTKLTVL
notes: full-length IgG
binding result [1]: no binding | Kd [2]: 2.76 nM | Neut IC50 subtype A [3]: 0.03 µg/mL | Neut IC50 subtype B [4]: 0.03 µg/mL

B13: ADI-24857 (antibody, V domains shown)
VH: EVQLLESGGGLVKPGGSLRLSCAASGFTFSSYSMNWVRQAPGKGLEWVSSISSSSSYIYYADSVKGRFTISRDNAKNSLYLQMNSLRAEDTAVYYCAREGYYYGSGSYLDYWGQGTLVTVSS
VL: QSVVTQPPSVSGAPGQRVTISCTGSSSNIGAGYDVHWYQQLPGTAPKLLIYGNSNRPSGVPDRFSGSKSGTSASLAITGLQAEDEADYYCQSYDSSLSVVFGGGTKLTVL
notes: full-length IgG
binding result [1]: no binding | Kd [2]: 3.71 nM | Neut IC50 subtype A [3]: 0.18 µg/mL | Neut IC50 subtype B [4]: 1.4 µg/mL

B14: ADI-24849 (antibody, V domains shown)
VH: QVQLVQSGGVVVQPGGSLRLSCAASGFTFDDYTMHWVRQAPGKGLEWVSLIGWDGGSTYYADSVKGRFTISRDNSKYSLYLQMNSLRTEDTALYYCAKDLGSSSGYFLGRDYYGMDVWGQGTTVTVSS
VL: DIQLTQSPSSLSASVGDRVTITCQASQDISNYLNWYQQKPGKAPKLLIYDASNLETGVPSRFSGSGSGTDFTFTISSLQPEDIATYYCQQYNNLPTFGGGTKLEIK
notes: full-length IgG; also called Ab 410
binding result [1]: no binding | Kd [2]: 1.17 nM | Neut IC50 subtype A [3]: 0.01 µg/mL | Neut IC50 subtype B [4]: 0.03 µg/mL

B15: ADI-19475 (antibody, V domains shown)
VH: EVQLLESGAEVKKPGASVKVTCKASGYTFTHFGINWVRQAPGQGLEWLGWISAYNGNTNYVQKIQGRVTMTTDTSTNTAYMELRSLRSDDTAVYYCARGPPVEAAGTFDYWGQGTLVTVSS
VL: DIVLTQSPLSLPVTLGQPASISCRSSQSLVYSDGNTYLTWFQQRPGQSPRRLIYKVSNRDSGVPDRFSGSGSGTDFTLQISRVEAEDVGVYYCMQGTHWPFTFGPGTKVEIK
notes: full-length IgG
binding result [1]: no binding | Kd [2]: 4.25 nM | Neut IC50 subtype A [3]: 0.05 µg/mL | Neut IC50 subtype B [4]: 0.04 µg/mL

B16: ADI-22757 (antibody, V domains shown)
VH: EVQLLESGAEVKKPGASVKVSCKASGYTFSNYGISWVRQAPGQGLEWMGWISVYNGNTEYAQKFQGRLTMTTDTSTSTAYMELRSLRSDDTAVYYCARDPPAVAASFMDVWGQGTTVTVSS
VL: EIVLTQSPLSLPVTLGQPASISCRSSQSLVHSEGNTYLSWFQQRPGQSPRRLIYKVSNRDSGVPDRFSGSGSGTDFTLKISRVEAEDVGLYFCMQGTHWPPTFGGGTKVEIK
notes: full-length IgG
binding result [1]: no binding | Kd [2]: 0.538 nM | Neut IC50 subtype A [3]: 0.06 µg/mL | Neut IC50 subtype B [4]: 0.07 µg/mL

B17: ADI-19501 (antibody, V domains shown)
VH: QVQLVQSGAEVKKPGASVKVSCKASGYAFTNYGVSWVRQAPGQGLEWMGWISVYNGNTNYAQKLQGRVTMTTDTSTSTAYMELRSLRSDDTALYYCARDPPSEGAAGLFDYWGQGTLVTISS
VL: DIVMTQSPLSLPVTLGQPASFSCRSSQSLVYSDGNTYLSWFQQRPGQSPRRLIYKVSNRDSGVPDRFSGSGSGTDFTLKISRVEAEDVGVYYCMQGTHWPCTFGQGTKVEIK
notes: full-length IgG
binding result [1]: no binding | Kd [2]: 1.59 nM | Neut IC50 subtype A [3]: 0.02 µg/mL | Neut IC50 subtype B [4]: 0.02 µg/mL
